Test results from US20250361297A1, “ANTI- SIGLEC-15 BINDING MOLECULES AND METHODS OF USE” (ADAPTAM THERAPEUTICS, S.L., priority 2024, published 2025).

Target: T1, mutant version of Siglec-15 (R143A) (Homo sapiens, UniProt Q6ZMC9, R143A)
T1 construct: expressed in transfected cells; host or cells: HEK293T
T1 sequence (Q6ZMC9 20-328 R143A): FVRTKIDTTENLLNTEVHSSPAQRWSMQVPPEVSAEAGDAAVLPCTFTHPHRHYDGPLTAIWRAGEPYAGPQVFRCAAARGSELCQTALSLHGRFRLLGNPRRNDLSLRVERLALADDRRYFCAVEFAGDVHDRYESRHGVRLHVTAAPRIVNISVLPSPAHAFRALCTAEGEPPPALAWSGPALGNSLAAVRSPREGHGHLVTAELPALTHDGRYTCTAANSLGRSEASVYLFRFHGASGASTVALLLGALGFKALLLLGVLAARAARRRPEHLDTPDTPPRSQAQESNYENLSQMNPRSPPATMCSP
Assay: Flow cytometry binding to HEK293T cells expressing mutant Siglec-15 (R143A)
Settings: flow cytometry (FIG. 20, FIG. 21)
Experimental: Assessment of the binding of anti-Siglec-15 antibodies to HEK293T cells expressing full length human Siglec-15, or mutant human Siglec-15 (R143A) or the domain 2 of human Siglec-15 by Flow cytometry: Siglec-15+, Siglec-15+R143A, and Siglec-15 Domain 2 (D2) HEK293T cells were detached using tryple and washed once with PBS, resuspended in 1× flow cytometry buffer (PBS with 1% FBS) at approximately 1-2×10^6 cells/mL. Then, anti-Siglec-15 mAbs were added to the cell suspension at the desired concentration, starting at 10 μg/mL and performing 1/3 dilutions. Cells were incubated with the indicated antibodies for 30-60 minutes at 4° C. in the dark to prevent degradation of the fluorescent signal. After the primary antibody incubation, cells were washed twice with PBS or flow cytometry buffer by centrifuging at 300-500× g for 5 minutes and the pellet resuspended in fresh buffer. The following antibody was added: anti-human IgG-PE at a 1:500 dilution. Cells were incubated with the secondary antibody for 30 minutes at 4° C. in the dark. Finally, cells were washed twice with PBS or flow cytometry buffer to remove any excess secondary antibody and acquired in a flow cytometer.

B1: S15B1: parental mouse anti-Siglec-15 monoclonal antibody from hybridoma; VH SEQ ID NO: 18, VL SEQ ID NO: 19 (antibody, V domains shown)
VH: QVQLQQSGPELVKPGASVKISCKASGYAFSSSWMNWVKQRPGKGLEWIGRIYPGHGETNYNGKFKDKATVTADKSSSTTYMQLSSLTSEDSAVYFCARVDNSDPYYFDYWGQGTTLTVSS
VL: DIVLTQSPASLAVSLGQRATISCRASKSVSTSGYSYMHWYQQKPGQPPKLLIYLASNLESGVPARFSGSGSGTDFTLNIHPVEEEDAATYYCQHGRELPFTFGSGTKLEIK
modifications: Clone S15B1 VH; Clone S15B1 VL
binding to HEK293T cells expressing mutated Siglec-15 (R143A): demonstrated binding
